Data reported in paper PMC3733160.
Read-outs that look alike come from different tables or passages of the source.

What was measured:
[1] = target: 2-CysPrx C54S variant, non-tagged (Arabidopsis thaliana); assay: SEC
[2] = target: 2-CysPrx C176S variant, non-tagged (Arabidopsis thaliana); assay: SEC
[3] = target: 2-CysPrx C176S variant, non-tagged (Arabidopsis thaliana); assay: ITC
[4] = target: 2-CysPrx C-terminally truncated variant ΔC (–20 aa), non-tagged (Arabidopsis thaliana); assay: SEC
[5] = target: 2-CysPrx F84R variant, non-tagged (Arabidopsis thaliana); assay: SEC
[6] = target: 2-CysPrx F84R variant, non-tagged (Arabidopsis thaliana); assay: SEC; remark: listed apart in the source
[7] = target: 2-Cysteine peroxiredoxin A (At2-CysPrx) wild type, non-tagged (Arabidopsis thaliana); assay: SEC
[8] = target: 2-Cysteine peroxiredoxin A (At2-CysPrx) wild type, non-tagged (Arabidopsis thaliana); assay: SEC; remark: listed apart in the source
[9] = target: 2-Cysteine peroxiredoxin A (At2-CysPrx) wild type, non-tagged (Arabidopsis thaliana); assay: ITC

Q: How did the stoichiometry N [1] turn out when “2-CysPrx C54S variant, non-tagged (enzyme)” was run?
A: Its stoichiometry N is 10.

Q: Which stoichiometry N [2] does the source give for “2-CysPrx C176S variant, non-tagged (enzyme)” here?
A: Its stoichiometry N is 10.

Q: And the CTC (critical transition concentration, oligomer to dimers) [3]?
A: The CTC (critical transition concentration, oligomer to dimers) was 0.63 µM.

Q: What about the dH (dissociation enthalpy ΔHm) [3] of the same substance?
A: Its dH (dissociation enthalpy ΔHm) is 1610 kcal/mol.

Q: “2-CysPrx C-terminally truncated variant ΔC (–20 aa), non-tagged (enzyme)” was tested. Which stoichiometry N [4] did it give?
A: The stoichiometry N was 2.

Q: Which stoichiometry N [5] does the source give for “2-CysPrx F84R variant, non-tagged (enzyme)” here?
A: The stoichiometry N was 2.

Q: What about the stoichiometry N [6] of the same substance?
A: Its stoichiometry N is 2.

Q: Which results are given for “2-Cysteine peroxiredoxin A (At2-CysPrx) wild type, non-tagged (enzyme)”?
A: stoichiometry N [7]: 10; stoichiometry N [8]: 2; CTC (critical transition concentration, oligomer to dimers) [9]: 3.73 µM; dH (dissociation enthalpy ΔHm) [9]: 72 kcal/mol
